The target of the test is T1, RXRα LBD 226-462 (Homo sapiens, UniProt P19793).
T1 chain: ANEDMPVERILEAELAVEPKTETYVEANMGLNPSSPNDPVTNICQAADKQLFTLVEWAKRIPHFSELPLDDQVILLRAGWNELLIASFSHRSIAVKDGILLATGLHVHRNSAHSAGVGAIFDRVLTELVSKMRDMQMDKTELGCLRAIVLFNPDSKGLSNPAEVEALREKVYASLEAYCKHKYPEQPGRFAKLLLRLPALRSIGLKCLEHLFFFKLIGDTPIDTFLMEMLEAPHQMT
As to the kind of experiment: sedimentation equilibrium analytical ultracentrifugation.

B1: RXRα LBD 226-462 (protein)
chain: T1 chain
modifications: fluorescein-labeled
Molecule B1 displayed a Kd of 832 nM.

(Values after PMC2805030 (2010).)
